Biological target: T1, MBP-PP1-87B (Drosophila, UniProt P12982 1-302)
T1 construct: Drosophila PP1-87B (orthologue of PP1-gamma); also called MBP-87B; Protein Phosphatase 1; source: E. coli BL21-star, purified with amylose magnetic beads
Experiment: pull-down; purified 6xHis-N-Mps1 fragments incubated with MBP or MBP-PP1-87B bound to amylose magnetic beads; column buffer 250 mM NaCl, 20 mM Tris-HCl pH 7.4, 1 mM EDTA, 1 mM DTT; 60 min, room temperature; western blot
Details: both partners purified

T1 sequence (P12982 whole entry): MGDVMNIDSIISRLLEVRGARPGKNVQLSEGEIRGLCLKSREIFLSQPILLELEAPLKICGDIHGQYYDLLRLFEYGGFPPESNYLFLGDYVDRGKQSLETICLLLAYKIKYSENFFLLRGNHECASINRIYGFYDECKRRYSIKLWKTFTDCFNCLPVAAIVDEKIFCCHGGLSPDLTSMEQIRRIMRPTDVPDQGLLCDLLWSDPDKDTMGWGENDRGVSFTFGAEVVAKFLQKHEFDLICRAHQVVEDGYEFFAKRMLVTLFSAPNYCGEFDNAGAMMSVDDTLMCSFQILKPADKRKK

binding result: binds
B1: 6xHis-N-Mps1^WT (domain or fragment, Drosophila, UniProt Q9VEH1 104-330, looked up)
chain: PSQELTNSNSNITTRRTPSAAPLKQSDSNLSFLGRFNDMGINCSSQGSPVANSEKQVAKKTAPTLQAAPSATERRPLQETETPLRNELPSTSKTKPDADFITPQVRTIGSTLAGKSRSAVSNDFRAQKVLFQTPMTVSRAAPVASDSISFSLCDTITESPDIPEPPKKAEPPKSQHPSKKSLDHVFRESDKDNVPDKVDNVEPKELVSIPAVAVPPEQPSHKTSNIL
notes: Drosophila Mps1, N-terminus 104-330 amino acids, cloned into KpnI/XhoI sites of pET30a(+); pET30a(+) may add further vector-coded residues (S-tag) besides the His tag; also called Mps1 N-terminus region (104-330 amino acids); source: E. coli BL21-star, purified with Novex Dynabeads, eluted with imidazole
